Results on one protein are retold here after article PMC3064264 (The Journal of neuroscience : the official journal of the …, 2010).

This data set concerns the molecule itself. Put plainly: non-reducing SDS-PAGE and Western blot.

B1: kinesin-12 (rat) (natural protein, UniProt Q7TSP2 1-1385, looked up)
chain: MAPGCKSELRNVTNSHSNQPSNEDDAIKVFVRIRPAEEGARSADGEQSLCLSVLSQTALRLHSNPDPKTFVFDYVAGMDTTQESVFSTVAKSIVESCMSGYNGTIFAYGQTGSGKTFTMMGPSDSDNFSHNLRGVIPRSFEYLFSLIDREKEKAGAGKSFLCKCSFIEVYNEQIYDLLDSASVGLYLREHIKKGVFVVGAVEQVVASAAEAYQVLSRGWRNRRVASTSMNRESSRSHAVFTITIESMEKSSEAVNIRTSLLNLVDLAGSERQKDTHAEGMRLKEAGNINRSLSCLGQVITALVDVGNGKQRHVCYRDSKLTFLLRDSLGGNAKTAIIANVHPGSRCFGETLSTLNFAQRAKLIKNKAVVNEDTQGNVSQLQAEVKRLREQLSQFTSGQLTPGSSLARDKEKANYMEYFLEAMLFFKKSEQEKKSLVEKITQLEDLTLKKEKFIQSNKMIVKFREDQIMRLERLQKEARGSFLPEEQDRLLSELRDEIRTLREQVEHHPRLAKYAMENHSLREENRKLKLLAPVKRAHELDAQAIARLEQAFSEVSSTETNDKGLQGLPPKAIKEPSFFTSTEKLKVQLLQIQTELNNSKQEYEEFKELTRKKQLELESELQSLQKANLNLENLLEATKVCKRQEVSQLNKIHAETLKIITTPTKAYQLCSRLVPKSSPEVGSFGFLRSQSAPDNDILNEPVPPEMSEQALEAISEELRTVQEQLSVLQVKLDEEEHKNLKLQQNVDRLEHHSTQMQELFSSERSDWSKQQQDYLTQLSDLEKQLQDAQTKNDFLKCEVHDLRIVLNSADKELSLVKLEYSTFKESQEKELSQLSERHVQVQLQLDNARLENEKLLESQACLQDSYDNLQEVMKFEVDQLSKNLQNCKQENETLKSDLHNLVELFEAEKERNNKLSLQFEEDKENSSKEILKALETVRQEKQEEMARCEKQMAKVQELEESLLAAENVVSCLEKSRESDKELVTNLMNQIQELRTSAGEKSEAIDTLKQELQDISCKYTAAVADKEESKELIRRQEVDILELKETLRLRILSEDIERDMLCEDLAHATEQLNMLTEASKKHSGLLQSAQEELTKKEALIQELQHKLNQEKEEVEQKKSEYNLKMKQLEHVMGSAPEYPQSPKTPPHFQTHLAKLLETQEQEIEDGRASKMSLQHLVTKLNEDREVKNAEILRMKDQLCEMENLRLESQQLRERTWLLQTQLDDMKRQGESSSQSRPDSQQLKNEYEEEIIRERLAKNKLIEEMLKMKTDLEEVQSALDSKEKFCHRMSEEVERTRTLESRAFQEKEQLRSKLEEMYEERERTCQEMEMLRKQLEFLAEENGKLIGHQNLHQKIQYVVRLKKENIRLAEETEKLRAENVFLKERKKE
As to B1, the “stoichiometry N” value turned out to be 2.

Broadly, the stoichiometry N is the number of molecules, sites or subunits per partner or assembly.
